In EP4375293A1 (Max-Planck-Gesellschaft zur Förderung der Wissenschaften …, dated 2024):

Tests used:
[1] = target: T1, SARS-CoV-2 Delta RBD (Delta_RBD-Avi-His) (SARS-CoV-2 (Delta variant)); experiment: BLI, biotinylated RBD
[2] = target: SARS-CoV-2 Delta variant spike protein (SARS-CoV-2 (Delta variant)); experiment: cell-based or functional assay
[3] = target: SARS-CoV-2 Omicron BA.1 variant spike protein (SARS-CoV-2 (Omicron BA.1 variant)); experiment: cell-based or functional assay
[4] = target: SARS-CoV-2 Omicron BA.1 RBD (Omicron_BA.1_RBD-AviHis) (SARS-CoV-2 (Omicron BA.1 variant)); experiment: BLI, biotinylated RBD, mass transport model fit
[5] = target: SARS-CoV-2 Omicron BA.2.75 RBD (Omicron_BA.2.75_RBD-AviHis) (SARS-CoV-2 (Omicron BA.2.75 variant)); experiment: BLI, biotinylated RBD, mass transport model fit
[6] = target: SARS-CoV-2 Omicron BA.5 RBD (Omicron_BA.5_RBD-AviHis) (SARS-CoV-2 (Omicron BA.5 variant)); experiment: BLI, biotinylated RBD, mass transport model fit
[7] = target: T1, SARS-CoV-2 Delta RBD (Delta_RBD-Avi-His); experiment: BLI, biotinylated RBD, mass transport model fit

B1: Ma16B06 (VHH)
VHH: QVQLVESGGGLVRTGGSLRLSCAASGSILQIWAMKWYRQAPGLQREWIATIPNSGEPFYASSVEGRFTGSRENEETVYLYLNNLEPEDTAVYYCEVNEGVPVREYWGQGTQVTVSS
notes: Monomeric VHH; also called VHH Ma16B06
- binding result [1]: no binding
- Lowest virus neutralizing concentration (pM; IC99) [2]: > 5000 pM
- Lowest virus neutralizing concentration (pM; IC99) [3]: 50 pM
- Kd [4]: 0.04 nM
- Kd [5]: 0.06 nM
- Kd [6]: 20 nM

B2: Ma28D01 (VHH)
VHH: QVQLVESGGGLVQPGGSLRLSCVVSELGLDYYQIGWFRQAPGKEREGVSCFRSSDEIRYYADSVKGRFTTFRDNAGTTVYLQMNSLKPEDTGVYYCAVAPQTYYHGTWYGECAAAGMDSWGKGTQVTVSS
notes: Monomeric VHH
- Lowest virus neutralizing concentration (pM; IC99) [3]: 1700 pM
- Kd [7]: 0.015 nM
- Kd [4]: 0.2 nM
- Kd [5]: 0.3 nM
- Kd [6]: 0.03 nM

B3: Ma28F04 (VHH)
VHH: QVQLVESGGGLVQPGGSLRLSCVVSDLGLDYYQIGWFRQAPGKEREGVSCFRSSDEIRYYADPVKGRFTTFRDNAGTTVYLQMNSLKPEDTGVYYCAVAPQTYYHGTWYGECAAAGMDSWGKGTLVTVSS
notes: Monomeric VHH
- Lowest virus neutralizing concentration (pM; IC99) [2]: 500 pM
- Lowest virus neutralizing concentration (pM; IC99) [3]: 500 pM
- Kd [7]: 0.03 nM
- Kd [4]: 0.15 nM
- Kd [5]: 0.2 nM
- Kd [6]: 0.03 nM

B4: Ma28H11 (VHH)
VHH: QVQLVESGGGLVQPGGSLRLSCATSGLTLDHYAIGWFLQAPGKEREGVACVSDDERSLYAPSVMGRFSISRDNAKKTFYLEMNSLKPEDTGVYYCASGPVVPGTLCRIPTVLGYDDWGQGTQVTVSS
notes: Monomeric VHH; also called M28H11
- Lowest virus neutralizing concentration (pM; IC99) [2]: 50 pM
- Lowest virus neutralizing concentration (pM; IC99) [3]: > 5000 pM
- Kd [7]: 0.03 nM
- Kd [4]: 30 nM
- Kd [5]: 0.6 nM
- Kd [6]: 0.3 nM
